A short description of data set [1]: Confocal microscopy of CCM-bound fibers. As to conditions: for fiber diameter after CCM binding (confocal): 50 μM protein saturated with CCM, pH 4.0. In kind it is physicochemical. On the procedure:
Confocal Microscopy. Protein bound to CCM was studied by measuring 50 μM protein samples saturated with CCM as determined by fluorescent spectroscopic drug binding with a final 1% v/v DMSO (or 2×Kd). 10 μL of protein was added to a micro slide and a 22×22 mm #1 microscope cover glass. Slides were inverted and imaged using a Leica TCS SP8 X Laser Confocal Microscope using a dry 10× objective at RT. CCM was excited using a 460 nm line of the laser, and images were taken using a 470 to 550 nm detection window.
Confocal Microscopy. Q2LTF was diluted to 50 μM and saturated with 40 μM of curcumin (solubilized in DMSO) as determined by the binding affinity in drug-binding experiments. […] 5 μL of sample was deposited onto a microslide and covered with a 22×22 mm #1 microscope cover glass. Images were taken with a Leica TCS SP8 X laser confocal microscope using a dry 10× objective at RT. Samples were excited at 460 nm and images were taken with a 470-550 nm detection window.

Data set [2] can be described thus: ATR-FTIR peak deconvolution of secondary structure. The format is physicochemical. The protocol: Attenuated Total Reflectance-Fourier Transform Infrared Spectroscopy. Secondary structure of protein fiber variants was confirmed using attenuated total reflectance-Fourier transform infrared (ATR-FTIR) spectroscopy using the Nicolet 6700 Fourier Transform Infrared Spectrometer equipped with a diamond ATR accessory and a mercury cadmium telluride (MCT)-A detector. Spectra were collected for 5 μL of 500 μM protein from 4000-400 cm^−1 with 0.5 cm^−1 increments at room temperature (RT). For CCM bound protein, protein was bound at a final concentration of 500 μM and saturated with CCM as determined by fluorescent spectroscopic drug binding with a final 1% v/v DMSO. Sample spectra were normalized using buffer background and analyzed from 1700-1600 cm^−1 corresponding to the amide I region. Peaks were deconvoluted using Gaussian functions in PeakFit software until the goodness of fit reached r^2≥0.99. Peaks were associated with secondary structure were determined by methods known in the art.
(§1) Attenuated Total Reflectance-Fourier Transform Infrared Spectroscopy. Secondary structure of Q2 protein was confirmed using attenuated total reflectance-Fourier transform infrared (ATR-FTIR) spectroscopy using the Nicolet 6700 Fourier Transform Infrared Spectrometer equipped with a diamond ATR accessory and a mercury cadmium telluride (MCT)-A detector. Spectra were collected for 5 μL of 2 mM protein from 4000-400 cm^−1 with 0.5 cm^−1 increments. Sample spectra were normalized using buffer background and analyzed from 1700-1600 cm^−1 corresponding to the amide I region. Peaks were deconvoluted using Gaussian functions in PeakFit software until the goodness of fit reached r^2>0.99.
as §1, with “of Q2LTF and QLTF” for “of Q2”, “using a” for “using the”, “of 1” for “of 2”, “with 4.0” for “with 0.5”, “reached r^2≥0.99.” for “reached r^2>0.99.”
Attenuated Total Reflectance-Fourier Transform Infrared Spectroscopy. Secondary structure before (solution) and after gelation (gel) was also assessed by peak deconvolution of attenuated total reflectance-Fourier transform infrared (ATR-FTIR) spectra. ATR-FTIR measurements were performed using a Nicolet 6700 Fourier Transform Infrared Spectrometer equipped with a mercury cadmium telluride (MCT)-A detector. Spectra were collected for 5 μL samples of protein at 2 mM from 4000-400 cm^−1 with a 4.0 cm^−1 resolution, normalized, and buffer-subtracted prior to analysis from 1700-1600 cm^−1, corresponding to the amide I region. ATR-FTIR measurements were performed immediately after concentration to 2 mM for solution measurements and after. Peaks were deconvoluted using Gaussian functions in PeakFit software until the goodness of fit reached r^2≥0.99.

Data set [3] in a line: Fluorescence recovery after photobleaching (FRAP). Conditions: one-phase association fit. On the procedure: Protein fibrils are capable of blue autofluorescence as a result of protein self-assembly. Fluorescent recovery after photobleaching (FRAP) is measured by photobleaching using a 405 nm laser and measuring the spot intensity over time. This behavior was previously confirmed in the Q protein in a recent characterization. Using the correlation between autofluorescence and fibrilization, the relative autofluorescence of the coiled-coil protein hydrogels was measured. […] To assess the relative laser response, hydrogels were subjected to FRAP imaging using two 100% intensity bleaches at 405 nm excitation followed by imaging at 2 second frame intervals (FIG. 53c).
Confocal Imaging and Fluorescence Recovery After Photobleaching (FRAP). FRAP experiments were performed with a Stellaris 8 Falcon laser scanning confocal microscope on an inverted DMi8 CS stand equipped with 63X NA 1.4 lens. Images were taken with a laser at 405 nm excitation. A pre-bleach image was taken followed by two bleach images using 100% laser intensity for 1.5 s. Following, 41 images were taken post-bleach at 2 s intervals. To measure recovery, FIJI (version 2.3.0) was used to automate background and recovery imaging following photobleaching. Independent background intensities were fit to a one-phase decay equation in GraphPad Prism. Background loss, as a result of photobleaching, from fit values were added to spot intensity values before being fit to a one-phase association equation in GraphPad Prism.

Square brackets hold non-standard residues; d marks the D form. Ends that are not written are not given here. LTF = trifluoroleucine

As to “Q3: Q variant with V44I pore mutation, SEQ ID NO: 12 (MRGSHHHHHHGSIEGRVKEILFLKNTAYQMLLELKETNEALYDIRHLLQQQSKL) [Protein Q3]”, the “fiber diameter after CCM binding (confocal)” value in data set [1] was 8.04±1.78 μm. Besides, in data set [2] (native), the aggregated strands is given as 5.2% and the “antiparallel β-sheet/aggregated strands” value is given as 6.8%. Further, in data set [2] (w/CCM), the aggregated strands turned out to be 17.8% and the “antiparallel β-sheet/aggregated strands” value is on record as 7.6%. In data set [3], this substance came in with a Halftime of 34.8 s, a K of 0.0 s⁻¹ and a Tau of 50.1 s.

In data set [3], “Q5: Q hydrogel variant from Rosetta Monte Carlo search, SEQ ID NO: 14 (MRGSHHHHHHGSIEGRVKEITFIKKTIEQIAEEMKEINKAIHDIRHALENISKK) [Protein Q5]” came in with a Halftime of 12.3 s, a K of 0.1 s⁻¹ and a Tau of 17.7 s.

Consider “Q2LTF: protein-engineered fluorinated coiled-coil fiber, Q2 with trifluoroleucine, SEQ ID NO: 20 (MRGSHHHHHHGSIEGRVKE[LTF][LTF]F[LTF]KKTAEQM[LTF]EE[LTF]KETNKA[LTF]HDVRH[LTF][LTF]ENQSK[LTF]; ends and bridges not checked) [Protein Q2LTF]”, for which the “average fiber diameter after CCM binding (confocal)” value in data set [1] (50 μM Q2LTF, 40 μM curcumin) came to 10.8±5.4 μm. The same substance yielded a α-helical content in data set [2] of 42.4±8.6%. In addition, in data set [2] (fluorinated constructs, Tris buffer), the “aggregated strands” value is 6.8 % composition.

As to “Q2: coiled-coil protein redesigned from Q for reduced lateral assembly, SEQ ID NO: 11 (MRGSHHHHHHGSIEGRVKELLFLKKTAEQMLEELKETNKALHDVRHLLENQSKL) [Protein Q2]”, the “fiber diameter after CCM binding (confocal)” value in data set [1] was found to be 7.17±2.19 μm. Further, the “aggregated strands” value in data set [2] (Gel, 2 mM) was found to be 2.3 % composition. Moreover, the “aggregated strands” value in data set [2] (Solution, 2 mM) is 2.1 % composition. Moreover, in data set [2] (native), the aggregated strands is given as 3.9% and the “antiparallel β-sheet/aggregated strands” value is 20.6%. Moreover, the “change in α-helical content upon gelation” value in data set [2] (solution to gel) was “+12.8%”. Besides, in data set [2] (w/CCM), the aggregated strands was 10.6% and the “antiparallel β-sheet/aggregated strands” value worked out at 0.0%. Besides, in data set [3], the Halftime was 11.1 s, the K is 0.1 s⁻¹ and the Tau stood at 16.0 s.

As for “Q: rationally designed pentameric coiled-coil derived from C, SEQ ID NO: 23 (MRGSHHHHHHGSIEGRVKEITFLKNTAPQMLRELQETNAALQDVRELLRQQSKL) [reference compound]”, the “fiber diameter after CCM binding (confocal)” value in data set [1] is 14.74±5.501 μm. In addition, in data set [2] (native), the aggregated strands came to 6.0% and the “antiparallel β-sheet/aggregated strands” value turned out to be 13.0%. In data set [2] (w/CCM), the aggregated strands worked out at 15.4 ± 3.8% and the “antiparallel β-sheet/aggregated strands” value was 7.8%. In data set [3], this substance showed a Halftime of 9.9 s, a K of 0.1 s⁻¹ and a Tau of 14.3 s.

These data come from patent US20240115742A1, “FLUORINATED FIBERS FOR MULTIMODAL 1H AND 19F MRI, ULTRASOUND, FLUORESCENCE DETECTION AND CONFORMATIONAL AND TEMPERATURE DETECTION BY 19F MRS” (New York University, priority 2022, published 2024).
